From patent US12685772B2, “Methods for treating CAPRIN-1 expressing cancers” (TORAY INDUSTRIES, INC., priority 2020, dated 2026)

Target: T1, CAPRIN-1 protein (Homo sapiens, UniProt Q14444)
T1 construct: made in house
T1 sequence (Q14444 1-709): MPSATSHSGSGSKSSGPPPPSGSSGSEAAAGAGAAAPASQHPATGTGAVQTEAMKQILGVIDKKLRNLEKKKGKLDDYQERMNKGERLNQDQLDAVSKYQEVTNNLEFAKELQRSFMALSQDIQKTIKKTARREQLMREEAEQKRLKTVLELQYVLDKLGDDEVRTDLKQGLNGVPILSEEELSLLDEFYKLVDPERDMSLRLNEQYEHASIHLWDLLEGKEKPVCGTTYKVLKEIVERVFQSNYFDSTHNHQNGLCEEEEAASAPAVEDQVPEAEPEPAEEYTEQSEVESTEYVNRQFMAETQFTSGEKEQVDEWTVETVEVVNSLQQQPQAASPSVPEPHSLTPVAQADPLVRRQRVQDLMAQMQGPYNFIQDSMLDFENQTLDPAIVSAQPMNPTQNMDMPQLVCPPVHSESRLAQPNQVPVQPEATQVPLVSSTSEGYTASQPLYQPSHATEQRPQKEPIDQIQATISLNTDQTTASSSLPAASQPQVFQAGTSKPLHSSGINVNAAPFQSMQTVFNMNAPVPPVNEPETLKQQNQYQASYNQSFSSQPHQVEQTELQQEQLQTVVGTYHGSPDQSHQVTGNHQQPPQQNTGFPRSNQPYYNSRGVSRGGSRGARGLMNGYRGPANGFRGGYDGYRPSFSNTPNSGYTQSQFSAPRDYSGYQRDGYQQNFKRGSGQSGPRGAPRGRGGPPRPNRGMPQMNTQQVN
Test: ELISA using CAPRIN-1 protein immobilized on a plate
Format: binding
Procedure: One hundred (100) μg of a human CAPRIN-1 recombinant protein produced according to Example 3 of WO2010/016526 was mixed with a MPL+TDM adjuvant (Sigma) in an amount equivalent to that of the recombinant protein. The mixture was used as an antigen solution per mouse. The antigen solution was administered intraperitoneally to 6-week-old Balb/c mice (Japan SLC Inc.) and then further administered 3 times […] every week for completion of immunization. A spleen was removed on day 3 after the final immunization and then ground between two sterilized glass slides. Spleen cells were obtained by washing with PBS (−) (Nissui Pharmatheutical), centrifuging at 1500 rpm for 10 minutes, and removing supernatant, therein these were repeated 3 times. The obtained spleen cells were mixed with mouse myeloma cell SP2/0 (purchased from ATCC) at a ratio of 10:1. The PEG solution prepared by mixing 200 μl of RPMI1640 medium containing 10% FBS heated at 37° C. and 800 μl of PEG1500 (Boehringer) was added to the cells. The solution was incubated for 5 minutes for cell fusion. Centrifugation was performed at 1700 rpm for 5 minutes to remove supernatants. […] Absorbance at 450 nm and absorbance at 595 nm were measured using an absorption spectrometer. As a result, a plurality of hybridomas producing antibodies with high absorbances were selected. […]

B1: monoclonal antibody against CAPRIN-1 described in WO2013/125630: mouse monoclonal antibody with heavy-chain variable region SEQ ID NO: 114 and light-chain variable region SEQ ID NO: 115 (antibody, listed as Mus musculus, V domains shown)
VH: GPELVKPGASVKMSCKASGYTFTSYVMHWVKQKPGQGLEWIGYINPYNDGTKYNEKFKGKATLTSDKSSSTAYMELSSLTSEDSAVYYCARRYYYGSSGGYFDVWAQDHVRT
VL: DVQITQSPSYLAASPGETITINCRASKSISKYLAWYQEKPGKTNKLLIYSGSTLQSGIPSRFSGSGSGTDFTLTISSLEPEDFAMYYCQQHNEYPYTFGGGTKLEIKR
specific reactivity to CAPRIN-1 protein: exhibiting reactivity
